Laboratory results from patent publication US20250237651A1 (ASAHI KASEI, published 2025).
Positions count from the first letter of the chain named.

Legend:
[1] = biological target: T1, Polypeptide 4 (part of Neisseria gonorrhoeae L7/L12 lacking amino acid residues 102 to 123) (Neisseria gonorrhoeae, UniProt A1KRG5 1-101); assay: ELISA, polypeptide solid-phased at 2 ug/mL, HRP-labeled anti-IgG
T1 construct: Purified as a tagged fusion protein
T1 sequence: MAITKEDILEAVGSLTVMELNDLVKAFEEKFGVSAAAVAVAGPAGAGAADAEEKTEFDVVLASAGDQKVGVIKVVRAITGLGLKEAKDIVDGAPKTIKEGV

[2] = biological target: T2, Polypeptide 5 (all of the L7/L12 amino acid sequence of Neisseria meningitidis) (Neisseria meningitidis, UniProt A1KRG5 1-123); assay: as above
T2 construct: Differs from Neisseria gonorrhoeae L7/L12 only at residue 115 (glutamic acid instead of alanine); Purified as a tagged fusion protein
T2 sequence: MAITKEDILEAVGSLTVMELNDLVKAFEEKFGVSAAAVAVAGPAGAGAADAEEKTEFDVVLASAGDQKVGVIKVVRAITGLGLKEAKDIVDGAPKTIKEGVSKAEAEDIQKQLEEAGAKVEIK

[3] = biological target: T3, Ribosomal protein L7/L12 of Neisseria meningitidis (in extracted sample solution of the bacteria) (Neisseria meningitidis, UniProt A1KRG5 1-123); assay: sandwich ELISA, capture NG3, HRP-labelled NG1, N. meningitidis extract
T3 construct: also called Neisseria meningitidis L7/L12
T3 sequence: T2 sequence

[4] = biological target: T4, Polypeptide 1 (all of the amino acid sequence of ribosomal protein L7/L12 of Neisseria gonorrhoeae) (Neisseria gonorrhoeae, UniProt B4RQW1 1-123); assay: ELISA, polypeptide solid-phased at 2 ug/mL, antibody 100 ng/ml; + = absorbance 450 nm 0.1 or greater
T4 construct: Expressed in E. coli and purified as a fusion protein through a vector-derived tag
T4 sequence: T2 sequence with E115A

[5] = biological target: T5, Polypeptide 2 (part of Neisseria gonorrhoeae L7/L12 lacking amino acid residues 1 to 14) (Neisseria gonorrhoeae, UniProt B4RQW1 15-123); assay: as above
T5 construct: Purified as a tagged fusion protein

[6] = biological target: T6, Polypeptide 3 (part of Neisseria gonorrhoeae L7/L12 lacking amino acid residues 1 to 63) (Neisseria gonorrhoeae, UniProt B4RQW1 64-123); assay: as above
T6 construct: Purified as a tagged fusion protein
T6 sequence: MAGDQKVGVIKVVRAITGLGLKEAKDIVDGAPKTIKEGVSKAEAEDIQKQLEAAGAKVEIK

[7] = biological target: T7, Ribosomal protein L7/L12 of Neisseria gonorrhoeae (in extracted sample solution of the bacteria) (Neisseria gonorrhoeae, UniProt B4RQW1 1-123); assay: sandwich ELISA, primary (capture) NG1, HRP-labelled secondary NG3, N. gonorrhoeae extract 1e6 cfu/mL; Absorbance difference A 1.0 or greater
T7 construct: also called Neisseria gonorrhoeae L7/L12; Neisseria gonorrhoeae-derived antigen
T7 sequence: T2 sequence with E115A

B1: Antibody NG1 (antibody, V domains shown)
VH: EVQLQQSGAELVKPGASVKLSCTASGFNIKDTYIYWVKQRPEQGLEWIGRIDPANGHTKCDPKFQGKATITSDTSSNTAYLQLNSLTSEDTAVYYCSKGYFHYWGQGTTLTVSS
VL: DIQMTQSPSSLSASLGERVSLTCRASQEISGYLSWLQQKPDGTIKRLIYAASTLDSGVPKRFSGSRSGSDYSLTISSLESEDFADYYCQQYDSYPWTFGGGTKLEIK
notes: Mouse hybridoma monoclonal antibody raised against polypeptide 1; detected with an anti-IgG antibody; HRP-labelled or gold-colloid-labelled when used as detection antibody; also called Antibody species A
B1: no binding [1]; no binding [2]; no binding [3]. B1: binds [4]; binds [5]; binds [6]. B1: binds [7].
